{"source": "the supplement of paper PMC10567573", "parents": {"B1": {"name": "DVL3 (parent)", "chain": "YNPHPGFPELGYSYGGGSASSQHS"}}, "data": [{"variants_of": "B1", "assay": "protein stability index of a GFP-peptide fusion (GPS, HEK-293T) (PSI 1-6); higher = more stable", "details": "c terminus: a fixed tail appended", "values": [{"variant": "YNPHPGFPELGYSYGGESASSQHS", "note": "[G17E]", "protein stability index": 3.05}, {"variant": "YNPHPGFPELGYSYGGFSASSQHS", "note": "[G17F]", "protein stability index": 1.77}, {"variant": "YNPHPGFPELGYSYGGHSASSQHS", "note": "[G17H]", "protein stability index": 2.15}, {"variant": "YNPHPGFPELGYSYGGISASSQHS", "note": "[G17I]", "protein stability index": 1.96}, {"variant": "YNPHPGFPELGYSYGGKSASSQHS", "note": "[G17K]", "protein stability index": 2.83}, {"variant": "YNPHPGFPELGYSYGGLSASSQHS", "note": "[G17L]", "protein stability index": 2.14}, {"variant": "YNPHPGFPELGYSYGGMSASSQHS", "note": "[G17M]", "protein stability index": 2.25}, {"variant": "YNPHPGFPELGYSYGGNSASSQHS", "note": "[G17N]", "protein stability index": 2.6}, {"variant": "YNPHPGFPELGYSYGGPSASSQHS", "note": "[G17P]", "protein stability index": 2.62}, {"variant": "YNPHPGFPELGYSYGGQSASSQHS", "note": "[G17Q]", "protein stability index": 2.87}, {"variant": "YNPHPGFPELGYSYGGRSASSQHS", "note": "[G17R]", "protein stability index": 2.82}, {"variant": "YNPHPGFPELGYSYGGSSASSQHS", "note": "[G17S]", "protein stability index": 3.29}, {"variant": "YNPHPGFPELGYSYGGTSASSQHS", "note": "[G17T]", "protein stability index": 2.85}, {"variant": "YNPHPGFPELGYSYGGVSASSQHS", "note": "[G17V]", "protein stability index": 1.63}, {"variant": "YNPHPGFPELGYSYGGWSASSQHS", "note": "[G17W]", "protein stability index": 1.69}, {"variant": "YNPHPGFPELGYSYGGYSASSQHS", "note": "[G17Y]", "protein stability index": 2.23}, {"variant": "YNPHPGFPELGYSYGGGAASSQHS", "note": "[S18A]", "protein stability index": 2.94}, {"variant": "YNPHPGFPELGYSYGGGCASSQHS", "note": "[S18C]", "protein stability index": 2.57}, {"variant": "YNPHPGFPELGYSYGGGDASSQHS", "note": "[S18D]", "protein stability index": 2.85}, {"variant": "YNPHPGFPELGYSYGGGEASSQHS", "note": "[S18E]", "protein stability index": 3.19}, {"variant": "YNPHPGFPELGYSYGGGFASSQHS", "note": "[S18F]", "protein stability index": 2.58}, {"variant": "YNPHPGFPELGYSYGGGGASSQHS", "note": "[S18G]", "protein stability index": 2.68}, {"variant": "YNPHPGFPELGYSYGGGHASSQHS", "note": "[S18H]", "protein stability index": 2.53}, {"variant": "YNPHPGFPELGYSYGGGIASSQHS", "note": "[S18I]", "protein stability index": 2.49}, {"variant": "YNPHPGFPELGYSYGGGKASSQHS", "note": "[S18K]", "protein stability index": 3.09}, {"variant": "YNPHPGFPELGYSYGGGLASSQHS", "note": "[S18L]", "protein stability index": 1.83}, {"variant": "YNPHPGFPELGYSYGGGMASSQHS", "note": "[S18M]", "protein stability index": 2.08}, {"variant": "YNPHPGFPELGYSYGGGNASSQHS", "note": "[S18N]", "protein stability index": 3}, {"variant": "YNPHPGFPELGYSYGGGPASSQHS", "note": "[S18P]", "protein stability index": 2.71}, {"variant": "YNPHPGFPELGYSYGGGQASSQHS", "note": "[S18Q]", "protein stability index": 2.92}, {"variant": "YNPHPGFPELGYSYGGGRASSQHS", "note": "[S18R]", "protein stability index": 2.44}, {"variant": "YNPHPGFPELGYSYGGGTASSQHS", "note": "[S18T]", "protein stability index": 2.26}, {"variant": "YNPHPGFPELGYSYGGGVASSQHS", "note": "[S18V]", "protein stability index": 2.72}, {"variant": "YNPHPGFPELGYSYGGGWASSQHS", "note": "[S18W]", "protein stability index": 1.65}, {"variant": "YNPHPGFPELGYSYGGGYASSQHS", "note": "[S18Y]", "protein stability index": 2.11}, {"variant": "YNPHPGFPELGYSYGGGSCSSQHS", "note": "[A19C]", "protein stability index": 2.19}, {"variant": "YNPHPGFPELGYSYGGGSDSSQHS", "note": "[A19D]", "protein stability index": 3.01}, {"variant": "YNPHPGFPELGYSYGGGSESSQHS", "note": "[A19E]", "protein stability index": 2.92}, {"variant": "YNPHPGFPELGYSYGGGSFSSQHS", "note": "[A19F]", "protein stability index": 2.09}, {"variant": "YNPHPGFPELGYSYGGGSGSSQHS", "note": "[A19G]", "protein stability index": 3.57}, {"variant": "YNPHPGFPELGYSYGGGSHSSQHS", "note": "[A19H]", "protein stability index": 2.3}, {"variant": "YNPHPGFPELGYSYGGGSISSQHS", "note": "[A19I]", "protein stability index": 2.3}, {"variant": "YNPHPGFPELGYSYGGGSKSSQHS", "note": "[A19K]", "protein stability index": 2.94}, {"variant": "YNPHPGFPELGYSYGGGSLSSQHS", "note": "[A19L]", "protein stability index": 2.17}, {"variant": "YNPHPGFPELGYSYGGGSMSSQHS", "note": "[A19M]", "protein stability index": 2.57}, {"variant": "YNPHPGFPELGYSYGGGSNSSQHS", "note": "[A19N]", "protein stability index": 3.07}, {"variant": "YNPHPGFPELGYSYGGGSPSSQHS", "note": "[A19P]", "protein stability index": 2.74}, {"variant": "YNPHPGFPELGYSYGGGSQSSQHS", "note": "[A19Q]", "protein stability index": 2.99}, {"variant": "YNPHPGFPELGYSYGGGSRSSQHS", "note": "[A19R]", "protein stability index": 3.04}, {"variant": "YNPHPGFPELGYSYGGGSSSSQHS", "note": "[A19S]", "protein stability index": 2.79}, {"variant": "YNPHPGFPELGYSYGGGSTSSQHS", "note": "[A19T]", "protein stability index": 2.53}, {"variant": "YNPHPGFPELGYSYGGGSVSSQHS", "note": "[A19V]", "protein stability index": 2.03}, {"variant": "YNPHPGFPELGYSYGGGSWSSQHS", "note": "[A19W]", "protein stability index": 1.4}, {"variant": "YNPHPGFPELGYSYGGGSYSSQHS", "note": "[A19Y]", "protein stability index": 2.4}, {"variant": "YNPHPGFPELGYSYGGGSAASQHS", "note": "[S20A]", "protein stability index": 3.01}, {"variant": "YNPHPGFPELGYSYGGGSACSQHS", "note": "[S20C]", "protein stability index": 2.88}, {"variant": "YNPHPGFPELGYSYGGGSADSQHS", "note": "[S20D]", "protein stability index": 3.09}, {"variant": "YNPHPGFPELGYSYGGGSAESQHS", "note": "[S20E]", "protein stability index": 2.95}, {"variant": "YNPHPGFPELGYSYGGGSAFSQHS", "note": "[S20F]", "protein stability index": 2}, {"variant": "YNPHPGFPELGYSYGGGSAGSQHS", "note": "[S20G]", "protein stability index": 2.97}, {"variant": "YNPHPGFPELGYSYGGGSAHSQHS", "note": "[S20H]", "protein stability index": 2.59}, {"variant": "YNPHPGFPELGYSYGGGSAISQHS", "note": "[S20I]", "protein stability index": 2.08}, {"variant": "YNPHPGFPELGYSYGGGSAKSQHS", "note": "[S20K]", "protein stability index": 2.65}, {"variant": "YNPHPGFPELGYSYGGGSALSQHS", "note": "[S20L]", "protein stability index": 2.2}, {"variant": "YNPHPGFPELGYSYGGGSAMSQHS", "note": "[S20M]", "protein stability index": 2.46}, {"variant": "YNPHPGFPELGYSYGGGSANSQHS", "note": "[S20N]", "protein stability index": 2.74}, {"variant": "YNPHPGFPELGYSYGGGSAPSQHS", "note": "[S20P]", "protein stability index": 2.89}, {"variant": "YNPHPGFPELGYSYGGGSAQSQHS", "note": "[S20Q]", "protein stability index": 2.66}, {"variant": "YNPHPGFPELGYSYGGGSARSQHS", "note": "[S20R]", "protein stability index": 2.73}, {"variant": "YNPHPGFPELGYSYGGGSATSQHS", "note": "[S20T]", "protein stability index": 2.58}, {"variant": "YNPHPGFPELGYSYGGGSAVSQHS", "note": "[S20V]", "protein stability index": 3.12}, {"variant": "YNPHPGFPELGYSYGGGSAWSQHS", "note": "[S20W]", "protein stability index": 1.95}, {"variant": "YNPHPGFPELGYSYGGGSAYSQHS", "note": "[S20Y]", "protein stability index": 1.79}, {"variant": "YNPHPGFPELGYSYGGGSASAQHS", "note": "[S21A]", "protein stability index": 3.1}, {"variant": "YNPHPGFPELGYSYGGGSASCQHS", "note": "[S21C]", "protein stability index": 2.1}, {"variant": "YNPHPGFPELGYSYGGGSASDQHS", "note": "[S21D]", "protein stability index": 3.01}, {"variant": "YNPHPGFPELGYSYGGGSASEQHS", "note": "[S21E]", "protein stability index": 2.96}, {"variant": "YNPHPGFPELGYSYGGGSASFQHS", "note": "[S21F]", "protein stability index": 1.88}, {"variant": "YNPHPGFPELGYSYGGGSASGQHS", "note": "[S21G]", "protein stability index": 2.61}, {"variant": "YNPHPGFPELGYSYGGGSASHQHS", "note": "[S21H]", "protein stability index": 2.55}, {"variant": "YNPHPGFPELGYSYGGGSASIQHS", "note": "[S21I]", "protein stability index": 2.56}, {"variant": "YNPHPGFPELGYSYGGGSASKQHS", "note": "[S21K]", "protein stability index": 2.54}, {"variant": "YNPHPGFPELGYSYGGGSASLQHS", "note": "[S21L]", "protein stability index": 2.24}, {"variant": "YNPHPGFPELGYSYGGGSASMQHS", "note": "[S21M]", "protein stability index": 2.89}, {"variant": "YNPHPGFPELGYSYGGGSASNQHS", "note": "[S21N]", "protein stability index": 2.62}, {"variant": "YNPHPGFPELGYSYGGGSASPQHS", "note": "[S21P]", "protein stability index": 2.88}, {"variant": "YNPHPGFPELGYSYGGGSASQQHS", "note": "[S21Q]", "protein stability index": 2.79}, {"variant": "YNPHPGFPELGYSYGGGSASRQHS", "note": "[S21R]", "protein stability index": 2.86}, {"variant": "YNPHPGFPELGYSYGGGSASTQHS", "note": "[S21T]", "protein stability index": 2.64}, {"variant": "YNPHPGFPELGYSYGGGSASVQHS", "note": "[S21V]", "protein stability index": 3.41}, {"variant": "YNPHPGFPELGYSYGGGSASWQHS", "note": "[S21W]", "protein stability index": 1.95}, {"variant": "YNPHPGFPELGYSYGGGSASYQHS", "note": "[S21Y]", "protein stability index": 2.37}, {"variant": "YNPHPGFPELGYSYGGGSASSAHS", "note": "[Q22A]", "protein stability index": 2.23}, {"variant": "YNPHPGFPELGYSYGGGSASSCHS", "note": "[Q22C]", "protein stability index": 2.13}]}]}
